These results are taken from a protein production outcome set (Wang et al. 2014).

This series is described as follows: label from the status in PepcDB records.

On to “MLNEEQNSLEEKGGENKNEKETPLKGIHSKIPSLKQALEQTISKIKSSKEFFKQILHNKKKLYIALGALLLLIVLIVALSLLLGHKKENKQTSLQTNTIATNNETPNNTNNANNTEAERQIENLDLSDLIGKDSLKRNDENQVDAIMKKASLLYEQGQKDEALHLFDKAASFSQGIASHNLGVIKFKEKDFNGALDLFDSSIASKENASVSAIDALVSAYHLQDEDLYYHYLKIARDTLYKDYKKSFYSYAYALKSYYAGEYFEALSPLMHPNSNAFLKPNTRLASKLFLMFKDETNAYEQLQKSANAQDELALGLLQARLGHYKQALEHLQHYLHNYPKDLNALMALELVSLKKGDTLKASEALKLASHTKEDTLLANSFYPIKPTINPVFLDKERAKERFWNTQYFEGKRDFIYRLLFYYAPFKVLDSKETLGVIEEGLFLLDSDAQKDLEGASLAFKRGRLMAIADKNALQGLKALENKRLKKALSFFDLSLKNSPNNALLHYNTGLIYAQLENYHKAYFHFLRAFHLNSADYLSAVFAILASHFTHEDTTEFLREITENFYSQDFSSPTQKALLSSLIAYLNYRTNWDMDWLKNAPKKLPFYYALEAAFAKESKDKKLMVQSFGNLKKMLPKDLISNIFYEIVSYYDASIRHTLSIYTLLDSHKISWDQTMQGPILGRHFYTYMGFMVNDLDHQERLLEQKIASLEEGEAPNDWLENLALVSLFQGQYEKASALYQNLISGLKDNETHLKILAGLTYIAQNNYDSAALWLELGKLDDPNNENIRYALGLLYQRKGDLKSALNHFLAIKTSDFSSPYFDFEIDANLLKERLDQEKEGEFLE”, for which the protein production result was “failed”.
Consider “MLNIGVKDVKTNLLTPVVTLSIFGSTGAVLPALAIPVITPTQQDIQPALPEPSPLPPTSPPVLEPPPSPPSPAPESENVLIPVQKIIVEGSTLFGPAEFDPILKPLEGQQVTLAELQRATDAITKLYLEGGYLTSRAVLNEQVVRDGVIRIQVLEGRLEDIRIEGNKGIIQRYIRSRIALGAGVPLNGNRLEEQLRLLRTDPLFANLSASLRPGTTPQESVLVVRVVPARWLNAAFGLDNHTSPAIAPNRATAFLGYNNLSGRGDSVYGSYAIGNNLGTFDWGASNTVEFGYSLPLNAMNGTLTIRTLQADSEITRPPALAAFNIRSESSIYQASFRQPVIRTIREELAFGIGFLMQSAQTFVLGVPAPISPGANASGYSASRVLEFTQEYTRRDTQGAWVFRSQFNFGLPIFGATENPSPIPDGNFFSWLGQGQRLQLLWADNLLILRTDVQLTPNSLLPFHQFVIGGPLSVRGYSTNALSGDNGLRFSGEARFPVLRTANRRPIISIGPLFDLGVVWNHSRNPAGAVPNNVIAGLGMGLLVQPTPNLDLQLQYAAPLIDLPGQTRSLQSDGIYFSLTVRP”, for which the protein production entry is “failed”.
In the case of “MLNIKRIKKKMNARNLFATAALLFTASTAFAQTGVQTNTPFGSGEDSIRCRQNISLFTSYAKTGNYKDAYDFWEKAYEECPASTKNIYIYGVKISEWRLQNEQDPAKRQQIIDKILKLYDDRVKYFGEDPKYGTDYIMASKISDYMQYMGDKTDYDKVYEWIKPTIDQHGENATPRALFYYAYSSLNKAIRNEAWHETYIKDYTFASQAMEKQLEVADEKGKEFIQPLKTQIDELFAQSGLADCNTLVKMYGDKLEENKTDTTFLKNMLGMFHASDCETHPLYFQANKYLFAVQPSAIAAMGLAKEAMEGNRYNEASDYLQKAIELSKSAKDRAACNYTLGLLAMKQGSYSTARSYCNKALAEDPAMGDALILIAQMYAATANTVFPGDAIKARCVYFLAVDKLQRAKNIDPSCAPRANRLISQYSRNFPSPADVFMHPDLEKGKSLFVGGWIGESTVIR” it was “failed”.
In the case of “MLNLSQNGCSVWVASSTEMVLTPTAVALGKFDGVHLGHQRVIQPVLQSTRSAQTWGDALDSSAQSANPPAAPQERIYSTVVTFRPHPQEFFTGQARTWLTPLDEKVQQLRSLGVDQLVLLPFDKELTALSPEEFVEKILVQQLRCQRISVGQDFCFGKQRRGTAKDLQLIAAKYHIPVSIVPLQTSDGQFLEDGNCGSFESLEDAPISTSLIRQALETGDIKTANRFLGRPYILIGVVVEGEQLGRTIGFPTANLELPKDKFVPRQGVYAVRVKILGESADANIPLEILGVMNIGNRPTVNGTYSSVEVYLLDWSGDLYGKELAVQLVDFLRPEQKFPSLEALKAQIQQDCTVARQILSREN”, the protein production result is recorded as “failed”.
In the case of “MLNLSSIMKPNEIMKNWIDPEAKAEAERYDNPIPSRTLILTTLEQLDLPQSHAELVDHFDIHDQKSIDALSHRLIAMVRDGQLSKDGFKFQPIGEQPTFDATVYINNKGFGSAHIDGQNDLLLPERELRLVFNGDRVKVRQTSVDRKGKAWGFITEVTQHRVKQLIGKLAVHEGEYFLQPSAPNAHQPIPLEKELIEHAQAKVGENLRVAIDDYPTREEFSTGHIIQSMSDKADTEIIIPQTILEFGLPYEFPEEVVKDAESFKEPSKKDIEGRIDLRDLPLVTIDGEDARDFDDAVYAEKRSGGGYRVVVAIADVSHYVRLGKPLDDEAQERGTSVYFPHFVLPMLPEALSNGLCSLNPHVDRLCMVCDLKLSRAGRVMSYEFYPSVMHSKARLTYTQVGNYFDGQTDAIPDDKNIQKSLNTLFQLYQTLKGLRAKRHAMEFETIETYMTFDELGGIKEILPRTRNEAHKLIEECMLLANVAAAEFSLQHDIPMLYRVHEAPEFSRIQKVKDFVKLLGLPFPDQPTQADYQRVIEATKDRIDAPSIHAVLLRSMMQAYYGAKNAGHYGLAYEAYTHFTSPIRRYPDLLLHRAIKAHLQQKPYPLSGAALDDAGEQFSRTERRADEASRSVTTWLKCHYMKQHLGEEFIGIISAVTEFGLFVTLKDLYVDGMIHVSQLGDDFFLYDQASQSLVGQNRGQIFGLGDEVKIKVAAVNLDERKIDFELMQQITHAGRVIRQKAPRSSKTQATEQVFNVPSETTSTQERDTRKKEKSKSKPSSYAKKSAKKSSPASVSKPVKEKKKVKVKKKKSNAKPKSE” it was “failed”; in that of “MLNPRIKWSSRKFGNLFDVILHLFFSDTFLFKEIPVDVDQLLVTWDGKLVSCLPTGTRGNYLCKVSSPPGVHRVSVEVIYGGRRIVKTENVPLIDFDISLSLDKNSLLVKLLGYSDPDTISVKLNGTPLTPSRIGPGEYRVDITERGVAEVEVCISGICKRSIINVEPHLSLSDWDPSVWVGRNLYGYQVMEFLGEGGFSYVMKASSPGGVVALKIPKLTQSPASGLTRNVINVLDDLFKEQSALLELSDSPYLVKLVGVHLDRDSVRRALTEPRYYLEYPPMIVMEFMAGGSVSRLVKDDVQFYSDNWKTAVFMIISRISSGLLKIHEKGYVHCDVKPSNILLDREPPPTAGELYERMKRREVNPKLADLGSAVKIGGVPPGVTLEYSSLEQVTSTRYGGVNPRDDVYSLGATIYYLLTKRYLNSPMIPFMEKALGGGGLDNSVYALRDYSTLEAVGLDSKIVRFIKDMTSENRDKRPSSLEVFNFFTSLVN”, “failed”; in that of “MLNPSLDIISLMAYLTSSSLVGLKLLNFSINLFISSSFLTFLKSLKCSLILPISMPANSGILFTAVSFMLARSLAMSSFGVFSSIINLFTTIHLPYLAVKLI”, “failed”.
Under “MLNSAGKLIYGLCFLLVVCVNNAMAEVIHSERSLYRNILVEDNGDLRCLKFNVKSTKTRQSCLLKSQPQQLVFNYTKQLLTGLLVNPEPKHILIIGLGGGTMSNTLHQLLPDSYIDNVEIDESVIKVARQYFGFLENDQIKTYSQDGRVFVKRALLKKQEYDWIILDAFNGDYIPEHLMTKEYLEETKRLLSPQGILTANTFSSSQLYRYESATYKAVFGDYYQVSNPDNSNRIILARNSGLDENLYKELAAAEQSESITQLAIKLLAIGVEVKQLYKNIKSTATHQDWPDDSPVLTDQFSPANLLNIDVD” stands “failed”; under “MLPDVFRADTGSRSLIQAQSDAQAVLTWLAEHADRPATLAAYRKEAERLLLWLAPRRQTLAQVKREDVLDYRRFLASPHPAEQWLGPARPRSHPDWKPFSKPLSPASVEHSLTVLGALFAYLNDAGYLNGNPFKLLRRRGARKSAQEIERFLDADCWRHLQATLNGLPRGSDREIRHAERALWLFTLLYLTGARRAEAAAARACDLARRNGNWWWHVVGKGGVSARIPLSDELMDALARYRLSLGLPPQPAADEDTPLVCRVGSKGQAKPLSDKAIYLVCKEVFGRAQAAAPNEDIRAKLRAASTHWLRHTAASHQLEAGVPLLLVSQNLRHASIQTTRRYLHSEEDARHEASRLHKLKRDS”, “failed”; under “MLPHSGRMVLIDRITRYGDDFVEAGAQVKPDHILLAGGMLPYTAFIELMAQAVGAYAGIQARKNARPVRLGFLPGTRKLEIFAQSVPVGTHLPATAHMSIQDAGVWACPTANCVGRMRRKLRPEHSFQTAFWHAPHSTCTAPNTMTEQLTPSEQAHIRRTTMTETVLITGSNRGIGKAAALEHHHHHH”, “failed”.
In the case of “MLPKRQLFLDRLNQALAWSQFSGVPGALLLIDLGLPAHLDGSPSLSPDAEENLEIIANRLQAYVRPHETLAHLNHHQFGLLLLDPDVQLRAEERAHGIQTLIRDRLAGFEGGAHIGIVPLTPETPATVLLQAAEAAAMTARSQQQGHLSLEASLEHHHHHH” it was “not failed”; in that of “MLPLNDYLQPFGLVIKPMQEDLTPYLGIKVKSEAGQEKITFVAAHSPAAMAGISPQDLLLAINGVRVGAEQLSLRLKDYQANDMIQLTVFHQDLLRTVDVVLASPQANRYEVVPIADPSDSQLEHHHHHH”, “not failed”.
As to “MLPLTLIAILSLGIVEGLDPYKGLLFSYYFYSFRKVKESYVVPIVSTITYYIVGILIVEWLNISDNILTRGIMFSLLLVHVLIKLVIGKVLHYPSNMRPKILNVIQWSAINSIIQMNFIILLTLSILSKPSLILLPITVIIVRETTYCLSVKNNKILLKLTEYNFDYFYLITVLLLGIVIILPLL”, the protein production result is on record as “failed”.
Under “MLPMLLWLVANLFLAPAAEGFHGMNKTNTWAVILSSSRYFFNLRHTTNALAMYHLCRKHGMDDDHILVFLSDSYACDPRKPNPATIYGAPAQAEQPNLYGCNIRVDYASYDVGVRRFLGVLQGRYDENTPPSRRLDTDENSNIIIYAAGHSAEKFFKFQDSEFMSSTDIADTLMMMWEQRRYRKLVFLVDTCRALSLCLEIKAPNVVCLASSEAHLDSYSHHLDPPSGFTVITRWTFEFLEVLKDSKCRPENGEVTLLQKSFYDFNYGPERLSLPQPLSEPAHFDAVNRPNAIREWKMDEFFCEQDRDKIPVELRYDLF” stands “failed”; under “MLPPPPSASPAARENTDPGGHRADSGVSYSKIDPVGTFVRLLGLIAPAWQAVLGATLLGSGTIASNIGLMATAAFLIASAALHPPAGKLMLAIVGVRFFGITRAVCRYLERYVNHSITLGILGRLRVAFYRTLEPLIPAGLQGHHSGDLLSRAVADVATLENFYLRVLNPPLVALPVAAGVFLFLAHFGRTLALAWMGAFLAAGVIFPVGVTIVGRGVMRRQGEARAALNTALVDTVQGLADILVFDHGRQQQEYIATLDRQYLHLQGRKAGLNGLANALTSLASNLALWAVLVLAIPLVNRGQIDGVYLAMLALTAAAALEAAKPLPMLFPHLEGSLAAARRIFALSDTRPAGDPAGPVPHPRDFSLRVQGLRFRYGPGEPPALDGIDFDVPSGARIAIVGPSGAGKSTLVNLLLRFWDYEEGAILLGGYDLKAYPPEELQRFIGVVAQPTHLFHATIAENLLLARPDATREEMERAAREARLHEFIQVLPRGYDTLIGEEGFKLSGGQRQRLAIARALLQNAPILILDEATTGLDAVTEREVMDSIRHLMEGRTTLVITHRLVGLEDMDKILVLDRGRLVQQGRHAELLRQEGLYRHLWQLQQEALP”, “failed”; under “MLPPYNYMDNGTLKGISIDLLEAITEKMGKKVTREEIHLVSWTEGYQAALTRNNTVLFVTARTPEREQSFKWVGPIYSDKYVLFAKRDPGVTIDGPEDLKEYRIGVISDDVAAQQLLNIGLEHHHHHH”, “not failed”.
